The values that follow are results of earlier work, collected in patent US20260217837A1, “FGFR3 BINDING MOLECULES AND METHODS OF USE THEREOF” (Regeneron Pharmaceuticals, Inc., priority 2023, published 2026).

Read-outs that look alike come from different tables or passages of the source.

This series relates to FGFR3.
The mark [1] stands for this setting: Table T-1, exemplary FGFR3 parental antibodies of cited publications.
[2] abbreviates: Exemplary FGFR3 D3 binding sequences, antibodies of cited PCT publications.

B1: MS-Pro-2: anti-FGFR3 Ig-like domain 2 antibody of WO 2002/102972 A2; SEQ ID NO: 24/25 (antibody, V domains shown)
VH: QVQLVQSGAEVKKPGASVKVSCKASGYTFTSYYMHWVRQAPGQGLEWMGWINPNSGGTNYAQKFQGRVTMTRDTSISTAYMELSSLRSEDTAVYYCARDFLGYEFDYWGQGTLVTVSS
VL: DIELTQPPSVSVAPGQTARISCSGDALGDKYASWYQQKPGQAPVLVIYDDSDRPSGIPERFSGSNSGNTATLTISGTQAEDEADYYCQSYDYSADYVFGGGTKLTVLGQ
B1: the Activity result under setting [1] is on record as “Antagonistic”.

B2: FGA0007: anti-FGFR3 (S249C mutant) antibody of WO 2021/010326 A1; SEQ ID NO: 88/89 (antibody, V domains shown)
VH: QSVEESGGRLVTPGTPLTLTCTVSGFSLSSYPMSWVRQAPGKGLEWIGIISSSGRTYYASWAKGRFTISKASSTTAALKMTSLTTEDTATYFCARGGVYKYDDYGDYVLNLWGRGTLVTVSS
VL: AIEMTQTPFSVSAAVGGTVTINCQASENIYSNLAWYQQKPGQPPKLLIYAASYLASGVPSRFKGSGSGTDYTLTISGVQCADAATYYCQCTLYSSTYGVAFGGGTEVVVK
Consider B2, for which, under setting [1], the Activity entry is reported as “Antagonistic”.

B3: FGA0005: anti-FGFR3 (S249C mutant) antibody of WO 2021/010326 A1; SEQ ID NO: 86/87 (antibody, V domains shown)
VH: QSLEESGGRLVTPGTPLTLTCTASGFSLSTYWICWVRQAPGEGLEWIGYISSSGNTYYASWAKGRFTISKTSSTTVDLKMTSLTTEDTATYFCGGHNSDYITGWALDPWGPGTLVTVSS
VL: AAVLTQTASPMSAAVGGTVTINCQSSKSVYRDKWLSWFQQKPGQPPKLLIYGASNLASGVSSRFKGSGSGTQFTLTISDVQCDDAATYYCLGGYSDNSEDAFGGGTEVVVK
In the case of B3, under setting [1], the Activity result is listed as “Antagonistic”.

B4: MS-Pro-26: anti-FGFR3 Ig-like domain 3 antibody of WO 2002/102972 A2; SEQ ID NO: 36/37 (antibody, V domains shown)
VH: QVQLVQSGAEVKKPGASVKVSCKASGYTFTSYYMHWVRQAPGQGLEWMGWINPNSGGTNYAQKFQGRVTMTRDTSISTAYMELSSLRSEDTAVYYCARGYWYAYFTYINYGYFDNWGQGTLVTVSS
VL: DIALTQPASVSGSPGQSITISCTGTSSDVGGYNYVSWYQQHPGKAPKLMIYDVSNRPSGVSNRFSGSKSGNTASLTISGLQAEDEADYYCQSYDNNSDWFGGGTKLTVLGQ
Turning to B4, the Activity result under setting [2] is “Antagonistic” and the Activity result under setting [1] is “Antagonistic”.

B5: MS-Pro-29: anti-FGFR3 Ig-like domain 3 antibody of WO 2002/102972 A2; SEQ ID NO: 40/41 (antibody, V domains shown)
VH: QVQLVQSGAEVKKPGASVKVSCKASGYTFTSYYMHWVRQAPGQGLEWMGWINPNSGGTNYAQKFQGRVTMTRDTSISTAYMELSSLRSEDTAVYYCARTWQYSYFYYLDGGYYFDIWGQGTLVTVSS
VL: DIVLTQSPATLSLSPGERATLSCRASQSVSSSYLAWYQQKPGQAPRLLIYGASSRATGVPARFSGSGSGTDFTLTISSLEPEDFATYYCQQTNNAPVTFGQGTKVEIKRT
As for B5, the Activity entry by setting is: under setting [2], “Antagonistic”; under setting [1], “Antagonistic”.

B6: MS-Pro-28: anti-FGFR3 Ig-like domain 3 antibody of WO 2002/102972 A2; SEQ ID NO: 38/39 (antibody, V domains shown)
VH: QVQLVQSGAEVKKPGSSVKVSCKASGGTFSSYAISWVRQAPGQGLEWMGGIIPIFGTANYAQKFQGRVTITADESSTAYMELSSLRSEDTAVYYCARGGGWVSHGYYYLFDLWGQGTLVTVSS
VL: DIQMTQSPSSLSASVGDRVTITCRASQGISSYLAWYQQKPGKAPKLLIYAASSLQSGVPSRFSGSGSGTDFTLTISSLQPEDFAVYYCFQYGSIPPTFGQGTKVEIKRT
Take B6: the Activity result runs as follows: under setting [2], “Antagonistic”; under setting [1], “Antagonistic”.
